In the Human Domainome abundance scans (Beltran et al. 2025):

B1: Nucleolar transcription factor 1, residues 408 to 469; numbered along this chain, P17480 (parent)
chain: KRPVSAMFIFSEEKRRQLQEERPELSESELTRLLARMWNDLSEKKKAKYKAREAALKAQSER

Variants of: B1
Test: abundance fitness (aPCA) (normalised: wild type 0, dead -1); higher = more abundant; growth selection in yeast, the domain comes from the species named
Conditions: Homo sapiens

Abundance fitness: each site, then its substitutions
Q17: S -0.016, T -0.026, V -0.018, W -0.106, Y -0.145
L18: A -0.167, C -0.127, D -1.5, E -0.664, F -0.085, G -1, H -0.639, M -0.108, N -0.98, P -1.37, Q -0.531, R -0.965, S -0.632, T -0.092, V -0.021, W -0.338, Y -0.063
Q19: A -0.036, C -0.083, E -0.067, F -0.26, G -0.076, H -0.099, I 0.009, K 0.007, L -0.017, M 0.012, N -0.129, R -0.016, S -0.02, T -0.128, V -0.025, W -0.159, Y -0.095
E20: A -0.092, C -0.025, D 0.031, F -0.018, G -0.064, H -0.09, I -0.114, K 0.019, L -0.1, M -0.099, P -0.295, Q -0.016, R -0.012, S -0.016, T -0.067, V -0.055, W -0.152, Y -0.099
E21: A -0.099, C -0.076, D -0.126, F -0.238, H -0.163, I -0.111, K -0.065, L -0.097, M -0.073, P -1.1, Q -0.006, R -0.086, T 0.02, V -0.1, W -0.189, Y -0.276
R22: C -0.081, D -0.139, E -0.194, F -0.057, H 0.06, I -0.286, K -0.089, N -0.002, P -1.06, Q -0.058, S -0.119, T -0.229, V -0.29, W -0.132, Y -0.068
P23: A -0.256, D -0.431, E -0.357, F -0.402, G -0.254, H -0.267, I -0.187, K -0.174, M -0.291, N -0.319, Q -0.275, R -0.252, S -0.21, T -0.218, V -0.244, W -0.588, Y -0.402
E24: A -0.114, C -0.225, D 0.03, F -0.144, G -0.069, H -0.074, I -0.544, L -0.209, M -0.148, N -0.199, P -0.451, Q -0.151, R -0.225, S -0.147, T -0.123, V -0.401, W -0.083
L25: A -0.106, C -0.134, D -0.633, E -0.501, G -0.946, K -0.385, M -0.011, N -0.646, Q -0.477, R -0.325, T -0.423, V -0.155, Y -0.173
S26: A -0.115, C -0.263, D -0.157, E -0.109, F -0.592, H -0.182, I -0.29, K -0.476, L -0.231, M -0.052, N -0.1, P -0.16, Q -0.104, R -0.157, T -0.144, W -0.944, Y -0.536
E27: A -0.143, C -0.165, D 0.037, F -0.212, G -0.09, H -0.4, K -0.148, M -0.358, N -0.33, P -0.067, Q -0.121, S -0.178, T -0.133, V -0.201, W -0.328
